According to patent US9618524B2, “Method, composition, isolation and identification of a plaque particle and related biomarker” (Plaxgen Inc., priority 2012, dated 2017):

Tests used:
Test in all cases: Mass spectroscopy proteomics, semi-quantitative binding affinity of serum proteins (plaqueproteome, Table 2)
Conditions in all cases: higher number = stronger affinity
[1] = system: Low density cholesterol (Chl small) plaque particles; design: species or system human
How it was run: (§1)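 Serum or plasma from atherosclerotic subjects, diluted to 50% in PBS, was incubated with cholesterol aggregates (30 μg per 1 mL reaction) at 37° C for 1 hr. Small and large cholesterol plaque particles were sorted by flow cytometry gating, trypsin-digested and analysed by MS/MS against a human UniProt database.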

[2] = system: High Density cholesterol (Chl Large) plaque particles; design: species or system human
How it was run: as §1

Tau plaque particles = system: Tau plaque particles; design: species or system human
How it was run: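 Serum or plasma proteins captured on Thioflavin S-labelled Tau plaque particles (Tau-74, Tau-275 oligomers preformed in PBS at 37° C for 2 h; 1 h co-incubation at 37° C) were isolated by FACS sorting, then tryptically digested and identified by MS/MS (Sequest, human UniProt, strict trypsin).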

[3] = biological target: T1, Abeta-42 plaque particles (Homo sapiens, UniProt P05067)
T1 construct: Abeta 1-42
How it was run: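 AD patient serum or plasma (50% in PBS) was incubated with Abeta-42 aggregates (30 μg) for 1 h at 37 °C, then stained with Thioflavin S for 30 min. Labeled particles were FACS-sorted, trypsin/Lys-C digested overnight and analyzed by MS/MS. Sequest searched human UniProt; Scaffold/Protein Prophet validated the identifications.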

[4] = biological target: T2, alpha-synuclein plaque particles (Homo sapiens, UniProt P37840)
T2 construct: 140 amino acids polypeptide
How it was run: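 AD-subject plasma or serum (800 μL of 50%) mixed with 30 μg preformed alpha-synuclein aggregates for 1 h at 37 °C; Thioflavin S-positive particles isolated by flow sorting. After reduction, acrylamide alkylation and overnight tryptic digestion, serum proteins identified by MS/MS with Sequest and Scaffold.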

B1: Phosphatidylinositol-glycan-specific phospholipase D (protein)
chain: CGLSTHVEIGHRALEFLQLHNGRVNYRELLLEHQDAYQAGIVFPDCFYPSICKGGKFHDVSESTHWTPFLNASVHYIRENYPLPWEKDTEKLVAFLFGITSHMAADVSWHSLGLEQGFLRTMGAIDFHGSYSEAHSAGDFGGDVLSQFEFNFNYLARRWYVPVKDLLGIYEKLYGRKVITENVIVDCSHIQFLEMYGEMLAVSKLYPTYSTKSPFLVEQFQEYFLGGLDDMAFWSTNIYHLTSFMLENGTSDCNLPENPLFIACGGQQNHTQGSKMQKNDFHRNLTTSLTESVDRNINYTERGVFFSVNSWTPDSMSFIYKALERNIRTMFIGGSQLSQKHVSSPLASYFLSFPYARLGWAMTSADLNQDGHGDLVVGAPGYSRPGHIHIGRVYLIYGNDLGLPPVDLDLDKEAHRILEGFQPSGRFGSALAVLDFNVDGVPDLAVGAPSVGSEQLTYKGAVYVYFGSKQGGMSSSPNITISCQDIYCNLGWTLLAADVNGDSEPDLVIGSPFAPGGGKQKGIVAAFYSGPSLSDKEKLNVEAANWTVRGEEDFSWFGYSLHGVTVDNRTLLLVGSPTWKNASRLGHLLHIRDEKKSLGRVYGYFPPNGQSWFTISGDKAMGKLGTSLSSGHVLMNGTLKQVLLVGAPTYDDVSKVAFLTVTLHQGGATRMYALTSDAQPLLLSTFSGDRRFSRFGGVLHLSDLDDDGLDEIIMAAPLRIADVTSGLIGGEDGRVYVYNGKETTLGDMTGKCKSWITPCPEEKAQYVLISPEASSRFGSSLITVRSKAKNQVVIAAGRSSLGARLSGALHVYSLGSD
Semi-quantitative analysis of proteins binding to different plaque particles: Chl small [1]: 1 | Semi-quantitative analysis of proteins binding to different plaque particles: Chl Large [2]: 1 | Semi-quantitative analysis of proteins binding to different plaque particles: Tau (Tau plaque particles): 2 | Semi-quantitative analysis of proteins binding to different plaque particles: Abeta-42 [3]: 0 | Semi-quantitative analysis of proteins binding to different plaque particles: Synuclein [4]: 0

B2: Thyroxine-binding globulin (protein)
chain: ASPEGKVTACHSSQPNATLYKMSSINADFAFNLYRRFTVETPDKNIFFSPVSISAALVMLSFGACCSTQTEIVETLGFNLTDTPMVEIQHGFQHLICSLNFPKKELELQIGNALFIGKHLKPLAKFLNDVKTLYETEVFSTDFSNISAAKQEINSHVEMQTKGKVVGLIQDLKPNTIMVLVNYIHFKAQWANPFDPSKTEDSSSFLIDKTTTVQVPMMHQMEQYYHLVDMELNCTVLQMDYSKNALALFVLPKEGQMESVEAAMSSKTLKKWNRLLQKGWVDLFVPKFSISATYDLGATLLKMGIQHAYSENADFSGLTEDNGLKLSNAAHKAVLHIGEKGTEAAAVPEVELSDQPENTFLHPIIQIDRSFMLLILERSTRSILFLGKVVNPTEA
Semi-quantitative analysis of proteins binding to different plaque particles: Chl small [1]: 1 | Semi-quantitative analysis of proteins binding to different plaque particles: Chl Large [2]: 0 | Semi-quantitative analysis of proteins binding to different plaque particles: Tau (Tau plaque particles): 1 | Semi-quantitative analysis of proteins binding to different plaque particles: Abeta-42 [3]: 2 | Semi-quantitative analysis of proteins binding to different plaque particles: Synuclein [4]: 0

B3: Lactotransferrin (protein)
chain: GRRRSVQWCAVSQPEATKCFQWQRNMRKVRGPPVSCIKRDSPIQCIQAIAENRADAVTLDGGFIYEAGLAPYKLRPVAAEVYGTERQPRTHYYAVAVVKKGGSFQLNELQGLKSCHTGLRRTAGWNVPIGTLRPFLNWTGPPEPIEAAVARFFSASCVPGADKGQFPNLCRLCAGTGENKCAFSSQEPYFSYSGAFKCLRDGAGDVAFIRESTVFEDLSDEAERDEYELLCPDNTRKPVDKFKDCHLARVPSHAVVARSVNGKEDAIWNLLRQAQEKFGKDKSPKFQLFGSPSGQKDLLFKDSAIGFSRVPPRIDSGLYLGSGYFTAIQNLRKSEEEVAARRARVVWCAVGEQELRKCNQWSGLSEGSVTCSSASTTEDCIALVLKGEADAMSLDGGYVYTAGKCGLVPVLAENYKSQQSSDPDPNCVDRPVEGYLAVAVVRRSDTSLTWNSVKGKKSCHTAVDRTAGWNIPMGLLFNQTGSCKFDEYFSQSCAPGSDPRSNLCALCIGDEQGENKCVPNSNERYYGYTGAFRCLAENAGDVAFVKDVTVLQNTDGNNNEAWAKDLKLADFALLCLDGKRKPVTEARSCHLAMAPNHAVVSRMDKVERLKQVLLHQQAKFGRNGSDCPDKFCLFQSETKNLLFNDNTECLARLHGKTTYEKYLGPQYVAGITNLKKCSTSPLLEACEFLRK
Semi-quantitative analysis of proteins binding to different plaque particles: Chl small [1]: 0 | Semi-quantitative analysis of proteins binding to different plaque particles: Chl Large [2]: 0 | Semi-quantitative analysis of proteins binding to different plaque particles: Tau (Tau plaque particles): 0 | Semi-quantitative analysis of proteins binding to different plaque particles: Abeta-42 [3]: 5 | Semi-quantitative analysis of proteins binding to different plaque particles: Synuclein [4]: 0

B4: Ig gamma-3 chain C region (protein)
chain: ASTKGPSVFPLAPCSRSTSGGTAALGCLVKDYFPEPVTVSWNSGALTSGVHTFPAVLQSSGLYSLSSVVTVPSSSLGTQTYTCNVNHKPSNTKVDKRVELKTPLGDTTHTCPRCPEPKSCDTPPPCPRCPEPKSCDTPPPCPRCPEPKSCDTPPPCPRCPAPELLGGPSVFLFPPKPKDTLMISRTPEVTCVVVDVSHEDPEVQFKWYVDGVEVHNAKTKPREEQYNSTFRVVSVLTVLHQDWLNGKEYKCKVSNKALPAPIEKTISKTKGQPREPQVYTLPPSREEMTKNQVSLTCLVKGFYPSDIAVEWESSGQPENNYNTTPPMLDSDGSFFLYSKLTVDKSRWQQGNIFSCSVMHEALHNRFTQKSLSLSPGK
Semi-quantitative analysis of proteins binding to different plaque particles: Chl small [1]: 11 | Semi-quantitative analysis of proteins binding to different plaque particles: Chl Large [2]: 15 | Semi-quantitative analysis of proteins binding to different plaque particles: Tau (Tau plaque particles): 13 | Semi-quantitative analysis of proteins binding to different plaque particles: Abeta-42 [3]: 11 | Semi-quantitative analysis of proteins binding to different plaque particles: Synuclein [4]: 14

B5: Platelet factor 4 variant (protein)
chain: FARAEAEEDGDLQCLCVKTTSQVRPRHITSLEVIKAGPHCPTAQLIATLKNGRKICLDLQALLYKKIIKEHLES
Semi-quantitative analysis of proteins binding to different plaque particles: Chl small [1]: 0 | Semi-quantitative analysis of proteins binding to different plaque particles: Chl Large [2]: 1 | Semi-quantitative analysis of proteins binding to different plaque particles: Tau (Tau plaque particles): 0 | Semi-quantitative analysis of proteins binding to different plaque particles: Abeta-42 [3]: 0 | Semi-quantitative analysis of proteins binding to different plaque particles: Synuclein [4]: 1

B6: Ig lambda chain V-III region (protein)
chain: SELTQDPAVSVALGQTVRITCQGDSLRSYYASWYQQKPGQAPVLVIYGKNNRPSGIPDRFSGSSSGNTASLTITGAQAEDEADYYCNSRDSS
Semi-quantitative analysis of proteins binding to different plaque particles: Chl small [1]: 1 | Semi-quantitative analysis of proteins binding to different plaque particles: Chl Large [2]: 1 | Semi-quantitative analysis of proteins binding to different plaque particles: Tau (Tau plaque particles): 2 | Semi-quantitative analysis of proteins binding to different plaque particles: Abeta-42 [3]: 0 | Semi-quantitative analysis of proteins binding to different plaque particles: Synuclein [4]: 2

B7: Isoform 2 of Ficolin-3 (protein)
chain: QEHPSCPGPRELEASKVVLLPSCPGAPGSPGEKGAPGPQGPPGPPGKMGPKGEPGPRNCRELLSQGATLSGWYHLCLPEGRALPVFCDMDTEGGGWLVFQRRQDGSVDFFRSWSSYRAGFGNQESEFWLGNENLHQLTLQGNWELRVELEDFNGNRTFAHYATFRLLGEVDHYQLALGKFSEGTAGDSLSLHSGRPFTTYDADHDSSNSNCAVIVHGAWWYASCYRSNLNGRYAVSEAAAHKYGIDWASGRGVGHPYRRVRMMLR
Semi-quantitative analysis of proteins binding to different plaque particles: Chl small [1]: 0 | Semi-quantitative analysis of proteins binding to different plaque particles: Chl Large [2]: 0 | Semi-quantitative analysis of proteins binding to different plaque particles: Tau (Tau plaque particles): 0 | Semi-quantitative analysis of proteins binding to different plaque particles: Abeta-42 [3]: 0 | Semi-quantitative analysis of proteins binding to different plaque particles: Synuclein [4]: 1

B8: Tetranectin (protein)
chain: EPPTQKPKKIVNAKKDVVNTKMFEELKSRLDTLAQEVALLKEQQALQTVCLKGTKVHMKCFLAFTQTKTFHEASEDCISRGGTLGTPQTGSENDALYEYLRQSVGNEAEIWLGLNDMAAEGTWVDMTGARIAYKNWETEITAQPDGGKTENCAVLSGAANGKWFDKRCRDQLPYICQFGIV
Semi-quantitative analysis of proteins binding to different plaque particles: Chl small [1]: 1 | Semi-quantitative analysis of proteins binding to different plaque particles: Chl Large [2]: 0 | Semi-quantitative analysis of proteins binding to different plaque particles: Tau (Tau plaque particles): 0 | Semi-quantitative analysis of proteins binding to different plaque particles: Abeta-42 [3]: 0 | Semi-quantitative analysis of proteins binding to different plaque particles: Synuclein [4]: 0
